Measured values published in publication PMC10828586, “Unmasking crucial residues in adipose triglyceride lipase for coactivation with comparative gene identification-58” (Journal of Lipid Research, 2023).

Columns and labels:
Assay in all cases: cell-based or functional assay
[1] = molecular target: T1, Xpress-mATGL, full-length, WT (Mus musculus, UniProt Q8BJ56 1-486)
T1 sequence (looked up): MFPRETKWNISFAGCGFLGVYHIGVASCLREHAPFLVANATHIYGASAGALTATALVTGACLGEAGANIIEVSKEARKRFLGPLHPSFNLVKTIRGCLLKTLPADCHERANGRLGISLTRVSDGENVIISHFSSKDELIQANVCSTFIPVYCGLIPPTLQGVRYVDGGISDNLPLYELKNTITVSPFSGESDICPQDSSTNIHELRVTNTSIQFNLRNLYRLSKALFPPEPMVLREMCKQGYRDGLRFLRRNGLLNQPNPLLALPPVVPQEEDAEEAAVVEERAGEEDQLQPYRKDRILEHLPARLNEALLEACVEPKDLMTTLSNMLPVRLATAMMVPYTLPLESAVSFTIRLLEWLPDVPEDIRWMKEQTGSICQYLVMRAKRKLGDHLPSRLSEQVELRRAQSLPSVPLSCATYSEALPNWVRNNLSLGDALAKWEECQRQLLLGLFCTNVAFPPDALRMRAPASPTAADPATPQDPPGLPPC

[2] = molecular target: T2, Xpress-mATGL288, WT (truncated after residue 288) (Mus musculus, UniProt Q8BJ56 1-288)
T2 sequence (looked up): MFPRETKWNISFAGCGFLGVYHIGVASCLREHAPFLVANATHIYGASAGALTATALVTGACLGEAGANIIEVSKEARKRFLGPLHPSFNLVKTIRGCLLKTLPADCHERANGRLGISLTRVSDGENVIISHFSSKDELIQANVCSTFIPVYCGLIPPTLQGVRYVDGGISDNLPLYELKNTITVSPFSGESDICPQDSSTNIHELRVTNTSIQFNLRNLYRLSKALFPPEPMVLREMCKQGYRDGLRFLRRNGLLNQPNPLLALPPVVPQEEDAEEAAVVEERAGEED

[3] = molecular target: T3, Xpress-mATGL288 N209A/I212A/N215A (Mus musculus, UniProt Q8BJ56 1-288, N209A | I212A | N215A)
T3 sequence (looked up): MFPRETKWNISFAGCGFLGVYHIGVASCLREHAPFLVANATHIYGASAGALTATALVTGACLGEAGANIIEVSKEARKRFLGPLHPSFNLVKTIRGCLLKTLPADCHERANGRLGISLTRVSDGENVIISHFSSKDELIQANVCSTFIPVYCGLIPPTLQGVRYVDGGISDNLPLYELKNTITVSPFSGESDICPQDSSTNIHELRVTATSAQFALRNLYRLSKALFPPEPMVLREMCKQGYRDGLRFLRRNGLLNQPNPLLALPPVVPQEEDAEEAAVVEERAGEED

[4] = molecular target: T4, smt3-mATGL288-StrepII (mouse adipose triglyceride lipase truncated after residue 288), WT (Mus musculus, UniProt Q8BJ56 1-288)
T4 sequence (looked up): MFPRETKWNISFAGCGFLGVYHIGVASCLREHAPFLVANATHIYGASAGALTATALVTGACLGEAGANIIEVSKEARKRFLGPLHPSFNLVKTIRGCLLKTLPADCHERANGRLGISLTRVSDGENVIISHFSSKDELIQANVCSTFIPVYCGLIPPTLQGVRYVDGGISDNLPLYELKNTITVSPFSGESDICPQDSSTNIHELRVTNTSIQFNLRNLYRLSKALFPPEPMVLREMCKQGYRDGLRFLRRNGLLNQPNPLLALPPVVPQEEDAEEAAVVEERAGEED

[5] = molecular target: T5, smt3-mATGL288-StrepII N209A (Mus musculus, UniProt Q8BJ56 1-288, N209A)
T5 sequence (looked up): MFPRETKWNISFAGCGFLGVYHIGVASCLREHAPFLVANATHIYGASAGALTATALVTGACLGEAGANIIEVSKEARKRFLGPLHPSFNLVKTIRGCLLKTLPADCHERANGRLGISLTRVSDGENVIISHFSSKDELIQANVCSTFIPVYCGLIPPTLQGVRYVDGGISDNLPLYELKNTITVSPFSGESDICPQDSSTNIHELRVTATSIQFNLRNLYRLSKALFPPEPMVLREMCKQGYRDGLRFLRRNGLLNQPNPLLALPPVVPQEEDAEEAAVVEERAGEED

[6] = molecular target: T6, smt3-mATGL288-StrepII I212A (Mus musculus, UniProt Q8BJ56 1-288, I212A)
T6 sequence (looked up): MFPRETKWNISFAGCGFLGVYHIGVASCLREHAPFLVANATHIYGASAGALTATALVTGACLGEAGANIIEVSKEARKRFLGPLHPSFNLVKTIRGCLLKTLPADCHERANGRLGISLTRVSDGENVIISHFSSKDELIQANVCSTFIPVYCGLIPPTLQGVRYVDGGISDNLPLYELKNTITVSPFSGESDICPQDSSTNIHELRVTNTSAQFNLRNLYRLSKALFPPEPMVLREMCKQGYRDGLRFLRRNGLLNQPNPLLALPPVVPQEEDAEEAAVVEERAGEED

[7] = molecular target: T7, smt3-mATGL288-StrepII I212S (Mus musculus, UniProt Q8BJ56 1-288, I212S)
T7 sequence (looked up): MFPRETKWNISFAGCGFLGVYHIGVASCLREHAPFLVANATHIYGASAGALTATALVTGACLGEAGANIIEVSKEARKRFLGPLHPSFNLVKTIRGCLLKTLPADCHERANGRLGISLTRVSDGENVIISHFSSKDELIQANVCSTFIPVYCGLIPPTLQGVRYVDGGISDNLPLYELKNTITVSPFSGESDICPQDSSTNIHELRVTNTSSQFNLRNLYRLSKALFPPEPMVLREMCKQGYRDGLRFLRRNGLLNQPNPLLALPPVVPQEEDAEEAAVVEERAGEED

[8] = molecular target: T8, smt3-mATGL288-StrepII N215A (Mus musculus, UniProt Q8BJ56 1-288, N215A)
T8 sequence (looked up): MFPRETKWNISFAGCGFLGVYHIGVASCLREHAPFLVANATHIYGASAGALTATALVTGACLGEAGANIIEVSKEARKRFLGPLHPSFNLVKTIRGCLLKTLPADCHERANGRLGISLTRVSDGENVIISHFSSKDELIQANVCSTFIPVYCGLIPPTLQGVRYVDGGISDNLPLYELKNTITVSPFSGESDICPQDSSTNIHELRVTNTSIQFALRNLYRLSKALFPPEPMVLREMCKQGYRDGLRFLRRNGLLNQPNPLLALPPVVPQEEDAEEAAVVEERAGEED

B1: smt3-mCGI-58-His6 (mouse comparative gene identification-58) (natural protein, UniProt Q9DBL9 1-351, looked up)
chain: MKAMAAEEEVDSADAGGGSGWLTGWLPTWCPTSTSHLKEAEEKMLKCVPCTYKKEPVRISNGNRIWTLMFSHNISSKTPLVLLHGFGGGLGLWALNFEDLSTDRPVYAFDLLGFGRSSRPRFDSDAEEVENQFVESIEEWRCALRLDKMILLGHNLGGFLAAAYSLKYPSRVSHLILVEPWGFPERPDLADQERPIPVWIRALGAALTPFNPLAGLRIAGPFGLSLVQRLRPDFKRKYSSMFEDDTVTEYIYHCNVQTPSGETAFKNMTIPYGWAKRPMLQRIGGLHPDIPVSVIFGARSCIDGNSGTSIQSLRPKSYVKTIAILGAGHYVYADQPEEFNQKVKEICHTVD
fold activation of TG hydrolase activity by mCGI-58 (Expi293F lysate) [1]: ~20 fold | fold activation of TG hydrolase activity by mCGI-58 (Expi293F lysate) [2]: 11 fold | fold activation of TG hydrolase activity by mCGI-58 (Expi293F lysate) [3]: ≤ 2 fold | EC50 of mCGI-58 for coactivation of TG hydrolase activity (25 μg bacterial lysate with mATGL288, purified mCGI-58 up to 2,300 nM) [4]: 178 nM | EC50 of mCGI-58 for coactivation of TG hydrolase activity (25 μg bacterial lysate with mATGL288 N209A, purified mCGI-58 up to 2,300 nM) [5]: 500 nM | EC50 of mCGI-58 for coactivation of TG hydrolase activity (25 μg bacterial lysate with mATGL288 I212A, purified mCGI-58 up to 2,300 nM) [6]: 500 nM | EC50 of mCGI-58 for coactivation of TG hydrolase activity (25 μg bacterial lysate with mATGL288 I212S, purified mCGI-58 up to 2,300 nM) [7]: 200 nM | EC50 of mCGI-58 for coactivation of TG hydrolase activity (25 μg bacterial lysate with mATGL288 N215A, purified mCGI-58 up to 2,300 nM) [8]: 200 nM
